Experimental data taken from patent US20190202925A1 (OPI VI IP HOLDCO, published 2019).
Residue numbers refer to the chain shown, from its start.

What was measured:
soluble human TNFR2 [1] = target: T1, soluble human TNFR2 (human, UniProt P20333 23-257); test: competition ELISA: plate-bound soluble human TNFR2, competitor biotinylated TNFα; IC50 relative to unlabelled TNFα = 1.00
T1 construct: also called soluble TNFR2
T1 sequence (looked up): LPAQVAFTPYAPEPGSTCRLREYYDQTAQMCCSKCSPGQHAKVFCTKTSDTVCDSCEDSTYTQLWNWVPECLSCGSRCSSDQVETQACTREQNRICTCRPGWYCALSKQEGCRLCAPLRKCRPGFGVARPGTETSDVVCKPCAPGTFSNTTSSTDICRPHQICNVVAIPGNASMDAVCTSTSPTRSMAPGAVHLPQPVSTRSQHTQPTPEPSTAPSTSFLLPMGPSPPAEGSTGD
Experimental: (§1) Soluble human TNFR2 (Sino Biological, 10417-H08H) or cynomolgus TNFR2 (Sino Biological, 90102-C08H) was coated on Nunc-Immuno™ plates at 0.1 μg/ml, 0.5 ug/ml, 1 μg/ml, and 5 μg/ml. […] Plates were developed using TMB and stopped with 3 M HCl.

soluble human TNFR2 [2] = target: T1, soluble human TNFR2; test: competition ELISA: plate-bound soluble human TNFR2, competitor biotinylated TNFα, streptavidin-HRP, A450
Experimental: as §1

[3] = target: T2, cynomolgus TNFR2 on cells (cynomolgus); test: flow cytometry on cynomolgus PBMC, antibody at 10 ug/mL, anti-human Fc-PE secondary
T2 construct: whole, on cells; also called cynomolgus TNFR2 on CD4+ and CD8+ T cells
Experimental: Cynomolgus peripheral blood mononuclear cells (PBMCs) from two independent donors were isolated by diluting whole blood (SNBL USA) 1:1 in PBS (Lonza), layering over Ficoll-Paque Plus (GE Healthcare), and centrifuging for 35 minutes at 400×g. The PBMC fraction was removed, washed 3 times in 2% FBS PBS and counted. 0.3×10⁶ PBMC were resuspended in Fixable Viability Stain 575V (BD) diluted 1:1000 in PBS and incubated for 10 minutes. PBMC were then washed twice in PBS to remove residual viability stain, resuspended in Horizon Brilliant Stain Buffer (BD) with 10 uL per test of human Fc receptor binding inhibitor (eBioscience), and incubated on ice for 20 minutes to block Fc receptors. […] PBMC were incubated 20 minutes on ice and then washed three times with 2% FBS PBS. To visualize TNFR2 chimeric antibody binding, PBMC were resuspended in goat anti-human Fc-PE F(ab′)₂ secondary reagent (Jackson ImmunoResearch) diluted 1:200 in 2% FBS PBS and incubated on ice for 20 minutes. Cells were then washed three times in 2% FBS PBS and resuspended in 200 uL 2% FBS PBS for flow cytometry analysis using a BD FACS Celesta instrument and FACS Diva software. T cells were analyzed for chimeric TNFR2 binding by gating on viable cells defined as lymphocytes using forward and side scatter and as T cells by anti-CD3 staining. CD4⁺ and CD8⁺ subsets were identified using commercial specific antibody conjugates.

human TNFR2 on cells = target: T3, human TNFR2 on cells (human, UniProt P20333 23-461); test: flow cytometry on human PBMC, antibody at 10 ug/mL, anti-human Fc-PE secondary
T3 construct: whole, on cells; also called TNFR2 on Jurkat clone H6; human TNFR2 on CD4+ and CD8+ T cells
T3 sequence (looked up): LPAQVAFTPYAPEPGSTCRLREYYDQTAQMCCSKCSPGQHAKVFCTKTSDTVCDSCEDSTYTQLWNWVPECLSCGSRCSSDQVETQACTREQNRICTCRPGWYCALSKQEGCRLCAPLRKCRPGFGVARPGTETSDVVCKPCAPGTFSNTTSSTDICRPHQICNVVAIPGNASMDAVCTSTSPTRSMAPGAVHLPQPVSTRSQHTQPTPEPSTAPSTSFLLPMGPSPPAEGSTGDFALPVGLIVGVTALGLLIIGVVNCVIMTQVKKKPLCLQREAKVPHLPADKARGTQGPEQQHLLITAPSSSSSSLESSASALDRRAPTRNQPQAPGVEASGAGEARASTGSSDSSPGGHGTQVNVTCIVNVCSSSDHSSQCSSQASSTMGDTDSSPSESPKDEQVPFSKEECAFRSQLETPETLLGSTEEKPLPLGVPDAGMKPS
Experimental: The following day 0.3×10⁶ PBMC were counted and washed with PBS (Lonza). PBMCs were resuspended in Fixable Viability Stain 575V (BD) diluted 1:1,000 in PBS and incubated for 10 minutes. PBMCs were then washed twice in PBS to remove residual viability stain. PBMCs were then resuspended in Horizon Brilliant Stain Buffer (BD) with 10 uL per test of human Fc receptor binding inhibitor (eBioscience) and incubated on ice for 20 minutes to block Fc receptors. […] PBMCs were incubated 20 minutes on ice and then washed three times with 2% FBS PBS. To visualize TNFR chimeric antibody binding, PBMCs were resuspended in goat anti-human Fc-PE F(ab′)₂ secondary reagent (Jackson ImmunoResearch) diluted 1:200 in 2% FBS PBS and incubated on ice for 20 minutes. Cells were then washed three times in 2% FBS PBS and resuspended in 200 uL 2% FBS PBS for flow cytometry analysis using a BD FACS Celesta instrument and FACS Diva software. T cells were analyzed for chimeric TNFR2 binding by gating on viable cells defined as lymphocytes using forward and side scatter and as T cells by anti-CD3 staining. CD4⁺ and CD8⁺ subsets were identified by commercially available specific antibody conjugates.

[4] = target: T4, monomeric human TNFR2 extracellular domain (human, UniProt P20333 23-257); test: BLI (Octet Red 96), antibody captured on Fc biosensor, monomeric TNFR2 ECD in solution, 1:1 model
T4 construct: extracellular domain; Analyte in the Octet experiments; also called human TNFR2 ECD
T4 sequence (looked up): T1 sequence (looked up)
Experimental: (§2) Analysis of binding to the human and cynomolgus TNFR2 ECD was performed using an Octet Red 96 Instrument™ (ForteBio). […] The experiments were performed using five steps: (1) baseline acquisition (60 s); (2) antibody loading on to anti-human or anti-mouse Fc biosensors (120 s); (3) second baseline acquisition (60 s); (4) association of interacting monomeric human or cynomolgus TNFR2 ECD protein for kₒₙ measurement (120 s); and (5) dissociation of interacting monomeric human or cynomolgus TNFR2 ECD for koff measurement (240-3600 s).
(§3) The interacting monomeric human or cynomolgus ECD was used at 5-6 concentrations of a 3-fold concentration series. The data were analyzed using Octet Data Analysis Software 9.0™ (ForteBio) and fit to the 1:1 binding model. The equilibrium dissociation constants (Kd) were calculated by the ratio of […].

[5] = target: T5, monomeric cynomolgus TNFR2 extracellular domain (cynomolgus monkey, UniProt A0A2K5VET2 132-366); test: as above
T5 construct: extracellular domain; Analyte in the Octet experiments; also called cynomolgus TNFR2 ECD; Cyno TNFR2
T5 sequence: T1 sequence (looked up) with S16G, S36P, P117Q, N164H, E210A, S216G, M223V
Experimental: as §2, §3

soluble human TNFR2 [6] = target: T1, soluble human TNFR2; test: competition ELISA, plate-bound soluble human TNFR2, biotinylated TNFα as competitor
Experimental: as §1
IC₅₀ values are reported in nM.

[7] = target: T4, monomeric human TNFR2 extracellular …; test: BLI (Octet Red 96), CHO supernatant antibody on anti-human Fc biosensor, 100 nM monomeric human TNFR2 ECD, 1:1 model
Experimental: Analysis of binding to human TNFR2 ECD was performed using Octet Red 96 instrument (ForteBio). The Octet systems use propriety BLI to analyze biomolecular interaction. CHO supernatants of hSBT-002a, hSBT-002b, hSBT-002c, hSBT-002d, hSBT-002e, and chSBT-002n were diluted to 20 ug/ml based on titers with expression media and immobilized using anti-human Fc biosensors. These were incubated with 100 nM monomeric human TNFR2 in PBS. The experiments comprised of 5 steps: (1) baseline acquisition (60 s); (2) antibodies loading onto anti-human Fc biosensor (120 s); (3) second baseline acquisition (60 s); (4) association of interacting monomeric human TNFR2 ECD protein for kₒₙ measurement (120 s); (5) Dissociation of interacting monomeric human TNFR2 ECD for koff measurement (300 s). Data were analyzed using Octet Data Analysis Software 9.0 (ForteBio) and fitted to the 1:1 binding model. Equilibrium dissociation constants (Kd) were calculated by the ratio of […].

[8] = target: T4, monomeric human TNFR2 extracellular …; test: BLI (Octet Red 96), Human TNFR2 Kd (1-1)

B1: chimeric SBT-003 (antibody, V domains shown)
VH: QIQLVQSGPELKKPGETVKISCKASGYTFTDYSMHWVKQAPGKGLKWMGWINTETGEPTYADDFKGRFAFSSETSTSTAYLQINNLKNDDTTTYFCATYYGSSYVPDYWGQGTSLTVSS
VL: DIVMTQSHKFMSTSVGDRVSITCKASQNVGTAVAWYQHKPGQSPKLLIYWTSSRHTGVPDRFTGSGSGTEFTLTISNVQSEDLADYFCHQYSDYPYTFGGGTKLEIK
notes: also called chSBT-003
Relative IC50 (soluble human TNFR2 [1]): 5.79 nM
IC50 (soluble human TNFR2 [2]): 14.4 nM
% CD4^+ ab^+ Donor 1 [3]: 0.7%
% CD4^+ ab^+ Donor 2 [3]: 1.2%
% CD8^+ ab^+ Donor 1 [3]: 0.6%
% CD8^+ ab^+ Donor 2 [3]: 2.1%
% CD4^+ ab^+ Donor 1 (human TNFR2 on cells): 44.4%
% CD4^+ ab^+ Donor 2 (human TNFR2 on cells): 35%
% CD8^+ ab^+ Donor 1 (human TNFR2 on cells): 23.8%
% CD8^+ ab^+ Donor 2 (human TNFR2 on cells): 17.7%
Kd [4]: 0.25 nM
Kd [5]: 470 nM
Average Relative IC50 (soluble human TNFR2 [6]): 5.33 nM

B2: chimeric SBT-002 Fc null (antibody, V domains shown)
VH: QVTLKESGPGILQPSQTLSLTCSFSGFSLSTSGMGVGWIRQPSGKGLEWLAHIWWDDDKFYNPSLKSQLTISKDTSRNQVFLKLTSVVTADTATYYCARLTGTRYFDYWGQGTTLTVSS
VL: DVQMTQSPSSLSASLGGKVTITCKASQDINKFIAWYQHKPGKGPRLLIHYTSTLQPGIPSKFSGSGSGRDYSFSISNLEPEDIATYYCLQYGNLWTFGGGTKLEIT
notes: also called chSBT-002n
Kd [7]: 1.92 nM
koff [7]: 0.000361 s⁻¹
Kd [8]: 2.5 nM

B3: hSBT-002b (antibody, V domains shown)
VH: QVTLKESGPALVKPTQTLTLTCTFSGFSLSTSGMGVGWIRQPPGKALEWLAHIWWDDDKFYNPSLKSQLTISKDTSKNQVVLTMTNMDPVDTATYYCARITGTRYFDYWGQGTTVTVSS
VL: DVQMTQSPSSLSASVGDRVTITCKASQDINKFIAWYQQKPGKAPKLLIHYTSTLQPGIPSRFSGSGSGTDFTFTISSLQPEDIATYYCLQYGNLWTFGGGTKVEIK
notes: Humanized SBT-002; VH fused to human IgG1 Fc null, VL to human Ck; Tested as CHO supernatant
Kd [7]: 2.44 nM
koff [7]: 0.000424 s⁻¹

B4: hSBT-002a (antibody, V domains shown)
VH: B3 VH with Q68R
VL: B3 VL with V2I, H49Y, I58V
notes: as for B3
Kd [7]: 4.89 nM
koff [7]: 0.000722 s⁻¹

B5: hSBT-002c (antibody, V domains shown)
VH: B3 VH with Q68R, I100L
VL: B3 VL
notes: as for B3
Kd [7]: 2.27 nM
koff [7]: 0.000446 s⁻¹

B6: hSBT-002d (antibody, V domains shown)
VH: B3 VH
VL: B3 VL with T69R, F71Y
notes: as for B3
Kd [7]: 1.73 nM
koff [7]: 0.000301 s⁻¹

B7: hSBT-002e (antibody, V domains shown)
VH: B3 VH with Q68R, I100L
VL: B3 VL with T69R, F71Y
notes: as for B3
Kd [7]: 1.54 nM
koff [7]: 0.000268 s⁻¹

B8: chimeric SBT-001 (antibody, V domains shown)
VH: EVQLQQSGAELVKPGASVKISCKASGYTFTDYNMDWVKQSHGKSLEWIGDINPNYESTSYNQKFKGKATLTVDKSSSTAYMEVRSLTSEDTAVFYCARDKGWYFDVWGAGTTVTVSS
VL: ENVLTQSPAIMSASLGEKVTMSCRASSSVKNMYWYQQKSDASPKLWIYYTSNLAPGVPARFSGSGSGNSYSLTISSMEGEDAATYYCQQFTSSPYTFGGGTKLELK
notes: also called chSBT-001
Kd [4]: 1.8 nM
Kd [5]: 58.3 nM

B9: chimeric SBT-003 Fc null (antibody, V domains shown)
VH: B1 VH
VL: B1 VL
notes: also called chSBT-003n
Kd [8]: 1 nM
